What was measured:
Test in all cases: purified protein
Format in all cases: biochemical, Thermus thermophilus
Conditions in all cases: pH 7.5, 47.5 °C, 10% (v/v) isopropanol, enzyme prediluted in 50 mM phosphate
purified protein [1] = substrate: CCCCCCCCCC(=O)Oc1ccc([N+](=O)[O-])cc1
purified protein [2] = substrate: CCCCCCCC(=O)Oc1ccc([N+](=O)[O-])cc1
purified protein [3] = substrate: CCCCCCCCCCCCCC(=O)Oc1ccc([N+](=O)[O-])cc1
purified protein [4] = substrate: CCCCCCCCCCCC(=O)Oc1ccc([N+](=O)[O-])cc1

B1: KLEST-3S esterase (E34Tt, N-terminally truncated ∆N16 variant) (Thermus thermophilus HB27) (protein)
chain: QGLEAFWKAVEVPGGVCADGSPYRFYVSPGDPRKVVVDFQGGGACWDQATCGPESRTYRKRVDVQELYLAQGIYNRMSVANPFFGWTHVFVPYCTGDLHVGRATVDYGGFKVHHQGARNAQAALEYVFRNHTNPERVFVTGCSAGAYGAVLWADKILATYKNAQIAVCGDAGVGVVTEDFPGFTAWNPRLPELPGLSSPPKVSEIYRALAQAYPKAVLAQYTTLLDGTQIYFYALMKKEAAPSEATAREWAVAAERAVGFPASEANYTYYLAPGSQHCILPRPELYTLKVGEVSFLDWLRALAEGRTPPRVRP
notes: ∆N16 (putative secretion signal removed; printed cleavage site between residues 16 and 17); secreted by Kluyveromyces lactis NRRL-Y1140; cell-free medium concentrated by ultrafiltration, partially purified, essentially free of contaminant proteins
Protein B1 has a Km (purified protein [1]) of 90 ± 10 µM, a kcat/Km (purified protein [1]) of 4.59e+07 M⁻¹ s⁻¹ and a Km (purified protein [2]) of 130 ± 30 µM. It also gave a kcat/Km (purified protein [2]) of 3.95e+07 M⁻¹ s⁻¹, a Km (purified protein [3]) of 190 ± 40 µM and a kcat/Km (purified protein [3]) of 322000 M⁻¹ s⁻¹. For the same protein, the Km (purified protein [4]) was 140 ± 30 µM and the kcat/Km (purified protein [4]) was 2.34e+07 M⁻¹ s⁻¹.
